Measured values taken from patent US12006344 (Novo Nordisk, dated 2024).
Positions count from the first letter of the chain named. In names and notes the source's numbering stands.

T1: human MIC-1 receptor (hGFRAL, GDNF family receptor alpha like) (human, UniProt Q6UXV0 19-394)
T1 sequence (looked up): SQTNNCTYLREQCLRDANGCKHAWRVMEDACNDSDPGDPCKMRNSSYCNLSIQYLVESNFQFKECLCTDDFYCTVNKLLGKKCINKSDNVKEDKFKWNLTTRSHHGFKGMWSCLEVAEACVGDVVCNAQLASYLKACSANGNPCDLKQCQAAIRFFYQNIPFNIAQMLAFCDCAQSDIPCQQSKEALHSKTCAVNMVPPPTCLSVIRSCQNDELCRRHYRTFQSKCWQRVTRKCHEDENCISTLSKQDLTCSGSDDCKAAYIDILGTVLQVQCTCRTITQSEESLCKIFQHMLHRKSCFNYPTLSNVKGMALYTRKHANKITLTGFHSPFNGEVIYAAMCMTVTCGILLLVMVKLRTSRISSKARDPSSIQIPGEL

B1: MIC-1 (SEQ ID NO: 1) (ligand)
chain: ARNGDHCPLGPGRCCRLHTVRASLEDLGWADWVLSPREVQVTMCIGACPSQFRAANMHAQIKTSLHRLKPDTVPAPCCVPASYNPMVLIQKTDTGVSLQTYDDLLAKDCHCI
B2: MIC-1(R2A, N3E, A81E) (ligand)
chain: B1 chain with R2A, N3E, A81E
B3: MIC-1(R2A, N3E, H18E) (ligand)
chain: B1 chain with R2A, N3E, H18E
B4: MIC-1(R2A, N3E, K107E) (ligand)
chain: B1 chain with R2A, N3E, K107E
B5: MIC-1(R2A, N3E, P85E) (ligand)
chain: B1 chain with R2A, N3E, P85E
B6: AES-MIC-1-Δ1-3 (ligand)
chain: B1 chain with R2E, N3S
B7: MIC-1(R2A, N3E, R67E) (ligand)
chain: B1 chain with R2A, N3E, R67E
B8: MIC-1(R2A, N3E, K69E) (ligand)
chain: B1 chain with R2A, N3E, K69E
B9: MIC-1(R2A, N3E, A30E) (ligand)
chain: B1 chain with R2A, N3E, A30E
B10: MIC-1(R2A, N3E) (ligand)
chain: B1 chain with R2A, N3E
B11: MIC-1(R2A, N3E, L68E) (ligand)
chain: B1 chain with R2A, N3E, L68E
B12: MIC-1(R2A, N3E, P11E) (ligand)
chain: B1 chain with R2A, N3E, P11E
B13: MIC-1(R2A, N3E, A54E) (ligand)
chain: B1 chain with R2A, N3E, A54E
B14: MIC-1(R2A, N3E, R53E) (ligand)
chain: B1 chain with R2A, N3E, R53E
B15: MIC-1(R2A, N3E, M57E) (ligand)
chain: B1 chain with R2A, N3E, M57E
B16: MIC-1(R2A, N3E, L105E) (ligand)
chain: B1 chain with R2A, N3E, L105E
B17: MIC-1(R2A, N3E, R21E) (ligand)
chain: B1 chain with R2A, N3E, R21E
B18: MIC-1(R2A, N3E, A47E) (ligand)
chain: B1 chain with R2A, N3E, A47E
B19: (AEE)2AES-MIC-1-Δ1-3 (ligand)
chain: AEEAEEAESGDHCPLGPGRCCRLHTVRASLEDLGWADWVLSPREVQVTMCIGACPSQFRAANMHAQIKTSLHRLKPDTVPAPCCVPASYNPMVLIQKTDTGVSLQTYDDLLAKDCHCI
B20: (AEE)6AES-MIC-1(SEQ ID NO: 1) (ligand)
chain: AEEAEEAEEAEEAEEAEEAESGDHCPLGPGRCCRLHTVRASLEDLGWADWVLSPREVQVTMCIGACPSQFRAANMHAQIKTSLHRLKPDTVPAPCCVPASYNPMVLIQKTDTGVSLQTYDDLLAKDCHCI
B21: AASPAGSPTSTEEGTSESATPESGPG-MIC-1-Δ1-3 (ligand)
chain: AASPAGSPTSTEEGTSESATPESGPGGDHCPLGPGRCCRLHTVRASLEDLGWADWVLSPREVQVTMCIGACPSQFRAANMHAQIKTSLHRLKPDTVPAPCCVPASYNPMVLIQKTDTGVSLQTYDDLLAKDCHCI
B22: A(GPEQGQEP)3-MIC-1-Δ1-3 (ligand)
chain: AGPEQGQEPGPEQGQEPGPEQGQEPGDHCPLGPGRCCRLHTVRASLEDLGWADWVLSPREVQVTMCIGACPSQFRAANMHAQIKTSLHRLKPDTVPAPCCVPASYNPMVLIQKTDTGVSLQTYDDLLAKDCHCI
B23: (GEPS)5-MIC-1 (SEQ ID NO: 1) (ligand)
chain: GEPSGEPSGEPSGEPSGEPSARNGDHCPLGPGRCCRLHTVRASLEDLGWADWVLSPREVQVTMCIGACPSQFRAANMHAQIKTSLHRLKPDTVPAPCCVPASYNPMVLIQKTDTGVSLQTYDDLLAKDCHCI
B24: AASPAGSPTSTEEGTSESATPESGPG-MIC-1 (SEQ ID NO: 1) (ligand)
chain: AASPAGSPTSTEEGTSESATPESGPGARNGDHCPLGPGRCCRLHTVRASLEDLGWADWVLSPREVQVTMCIGACPSQFRAANMHAQIKTSLHRLKPDTVPAPCCVPASYNPMVLIQKTDTGVSLQTYDDLLAKDCHCI
B25: SPAGSPTSTEEGTSESATPESGPG-MIC-1 (SEQ ID NO: 1) (ligand)
chain: SPAGSPTSTEEGTSESATPESGPGARNGDHCPLGPGRCCRLHTVRASLEDLGWADWVLSPREVQVTMCIGACPSQFRAANMHAQIKTSLHRLKPDTVPAPCCVPASYNPMVLIQKTDTGVSLQTYDDLLAKDCHCI
B26: (AEE)3AES-MIC-1-Δ1-3 (ligand)
chain: AEEAEEAEEAESGDHCPLGPGRCCRLHTVRASLEDLGWADWVLSPREVQVTMCIGACPSQFRAANMHAQIKTSLHRLKPDTVPAPCCVPASYNPMVLIQKTDTGVSLQTYDDLLAKDCHCI
B27: AAPEDEETPEQE-MIC-1-Δ1-3 (ligand)
chain: B26 chain with E2A, E3P, A4E, E5D, A7E, E8T, E9P, A10E, E11Q, S12E
B28: …-MIC-1-Δ1-3 (ligand)
chain: SEPATSGSETPGTSTEPSEGSAPGGDHCPLGPGRCCRLHTVRASLEDLGWADWVLSPREVQVTMCIGACPSQFRAANMHAQIKTSLHRLKPDTVPAPCCVPASYNPMVLIQKTDTGVSLQTYDDLLAKDCHCI
B29: (SEPATSGSETPG)2-MIC-1-Δ1-3(M57E) (ligand)
chain: B28 chain with T13S, S14E, T15P, E16A, P17T, E19G, G20S, S21E, A22T, M78E
B30: (SEPATSGSETPG)2-MIC-1-Δ1-3 (ligand)
chain: B28 chain with T13S, S14E, T15P, E16A, P17T, E19G, G20S, S21E, A22T
B31: (SEPATSGSETPG)2-MIC-1-Δ1-3(M57L) (ligand)
chain: B28 chain with T13S, S14E, T15P, E16A, P17T, E19G, G20S, S21E, A22T, M78L
B32: (AEE)5AES-MIC-1-Δ1-3 (ligand)
chain: AEEAEEAEEAEEAEEAESGDHCPLGPGRCCRLHTVRASLEDLGWADWVLSPREVQVTMCIGACPSQFRAANMHAQIKTSLHRLKPDTVPAPCCVPASYNPMVLIQKTDTGVSLQTYDDLLAKDCHCI
B33: AEEAES-MIC-1-Δ1-3 (ligand)
chain: AEEAESGDHCPLGPGRCCRLHTVRASLEDLGWADWVLSPREVQVTMCIGACPSQFRAANMHAQIKTSLHRLKPDTVPAPCCVPASYNPMVLIQKTDTGVSLQTYDDLLAKDCHCI
B34: AAPEDEETPEQEGSGSGSGSGS-MIC-1-Δ1-3 (ligand)
chain: AAPEDEETPEQEGSGSGSGSGSGDHCPLGPGRCCRLHTVRASLEDLGWADWVLSPREVQVTMCIGACPSQFRAANMHAQIKTSLHRLKPDTVPAPCCVPASYNPMVLIQKTDTGVSLQTYDDLLAKDCHCI
B35: AAPDEGTEEETEGSGSGSGSGS-MIC-1-Δ1-3 (ligand)
chain: B34 chain with E4D, D5E, E6G, E7T, T8E, P9E, Q11T
B36: TSESATPESGPGTSESATPESGPG-MIC-1(R2A, N3E) (ligand)
chain: TSESATPESGPGTSESATPESGPGAAEGDHCPLGPGRCCRLHTVRASLEDLGWADWVLSPREVQVTMCIGACPSQFRAANMHAQIKTSLHRLKPDTVPAPCCVPASYNPMVLIQKTDTGVSLQTYDDLLAKDCHCI

These binders were tested against T1, human MIC-1 receptor (hGFRAL, GDNF …) (assay: cell-based or functional assay).

| pERK EC50 (nM) | pERK Emax (%) | Binder |
| --- | --- | --- |
| 0.3 | 100 | B1 |
| 0.3 | 100 | B2 |
| 0.5 | 100 | B3 |
| 0.3 | 100 | B4 |
| 0.6 | 100 | B5 |
| 0.3 | 100 | B6 |
| 0.5 | 100 | B7 |
| 0.5 | 100 | B8 |
| 0.7 | 100 | B9 |
| 0.3 | 100 | B10 |
| 0.8 | 100 | B11 |
| 0.4 | 100 | B12 |
| 0.3 | 100 | B13 |
| 0.4 | 100 | B14 |
| 0.3 | 70 | B15 |
| 0.7 | 100 | B16 |
| 0.6 | 100 | B17 |
| 0.4 | 100 | B18 |

| pERK EC50 (nM) | pERK Emax (%) | Binder |
| --- | --- | --- |
| 0.4 | 100 | B19 |
| 0.8 | 100 | B20 |
| 0.7 | 100 | B21 |
| 0.8 | 100 | B22 |
| 0.5 | 100 | B23 |
| 0.4 | 100 | B24 |
| 0.4 | 100 | B25 |
| 0.5 | 100 | B26 |
| 0.5 | 100 | B27 |
| 0.7 | 100 | B28 |
| 0.6 | 60 | B29 |
| 0.4 | 100 | B30 |
| 0.6 | 100 | B31 |
| 0.5 | 100 | B32 |
| 0.3 | 100 | B33 |
| 0.5 | 100 | B34 |
| 0.5 | 100 | B35 |
| 0.3 | 100 | B36 |
